From the supplement of paper PMC9170038

Test system: MS2 coat protein
Experiment: apparent KD of MS2 coat protein; designed switch direction (-1 OFF switch, 1 ON switch): -1; higher = weaker reporter binding
In short: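 The apparent KD reported per design is the median over clusters of curve fits to normalised cluster fluorescence. The RNA switches were transcribed on Illumina chips by stalled E. coli RNA polymerase. SNAP-549-labelled MS2 coat protein was titrated from 0.7 or 1.5 nM, doubling up to 3 µM, in Tris-HCl pH 7.5 buffer containing KCl, MgCl2, BSA, DTT, tRNA and Tween-20, with no input, 200 uM small-molecule ligand, or an oligonucleotide input.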

[1] = input ligand: microRNA oligo, concentration not stated
[2] = Eterna round: R95, input ligand: FMN 200 uM
[3] = Eterna round: R95, input ligand: microRNA oligo, concentration not stated
[4] = Eterna round: R95, input ligand: none

Row | Sequence | apparent KD of MS2 coat protein (input ligand: FMN 200 uM) [nM] | apparent KD of MS2 coat protein [1] [nM] | apparent KD of MS2 coat protein (input ligand: none) [nM] | apparent KD of MS2 coat protein [2] [nM] | apparent KD of MS2 coat protein [3] [nM] | apparent KD of MS2 coat protein [4] [nM]
1 | GUUGUGCGAGGAUAUAUGUGAGGUUUGCCUCAACAGGUAAUACAUGAGGAUCACCCAUGUAGAAGGCGCAUGAG [S1-(23.6);S2-(22.1) [87C]] (Eterna round: R96, puzzle: Exclusion 2) | 248 | 45 | 63.9 |  |  | 
2 | GGUUGGCGAGGAUAUACAUGAGGAUCACCCAUGUGACAGAAAAAAGUGAGGAAGAAAAGUAGAAGGCGCUGACG [salish99_ex3_r3_019] (puzzle: Exclusion 3) |  |  |  | 587 | 44.9 | 37.1
3 | GUAUACAAGCAAAGAUCCCACAUGAGGAUCACCCAUGUGCUCGUCUUAUAAGGUACUGUGACGAAAGUCACGGUACC [Mat - Sensor, turn-off var - Eli Mod - D103] (Eterna round: R97, puzzle: Sensor, turn-off variant 1) | 42.9 |  | 43 |  |  | 
4 | GUUCUGACAGGAUAUACAUGAGGAUCACCCAUGUGCCCUUGGAGAUGCAAAGCAUCUCGUAGAAGGGUCUGAAC [Omei Ex3 Model Bachelor's Dilema v29] (Eterna round: R97, puzzle: Exclusion 3) | 34 |  | 37.2 |  |  | 
5 | ACAUGAGGAUCACCCAUGUCUGGCUGGUCCGUCUCGGCUGUCGAGGAUAUGGCUCGGUGUCCGCGCUAGAAGGCGGGAGCUGGC [Aenatbe mod 80] (Eterna round: R96, puzzle: Exclusion NG 3) | 75.2 | 46.2 | 89.3 |  |  | 
6 | UCUUUACAUGAGGAUCACCCAUGUGAGGAUAUGGUUUCGCUGGCCGUAGCCAGUGGAACCAGAAGGCGCAUGAU [Mat - Exclusion 1 - JL Mod - D9] (Eterna round: R97, puzzle: Exclusion 1) | 51.4 |  | 27.9 |  |  | 
7 | AGCCAUCUUGUGAGGAUAUGCCCUGGUCAAAGCCGGUAGAAGGUACAUGAGGAUCACCCAUGUGAACUAAUCUA [Eternabot (L1) Solution 90] (Eterna round: R97, puzzle: Brourd's mod of Exclusion 4) | 14.1 |  | 16.2 |  |  | 
8 | GUCAGGUAUCGAGGAUAUGUGAAAGGAAGUGUAGCAGAAGGCGAGGGCUUGACAUGAGGAUCACCCAUGUGAAGUGAUUCGAAG [17th something] (Eterna round: R96, puzzle: Exclusion NG 1) | 76.4 | 41 | 64.2 |  |  | 
9 | AGAGUGCUGCGAGGAUAUACAUGAGGAUCACCCAUGUAUUAGUGUGAGGCAAAGCCUCACACAAUGUAGAAGGCGCAGUACUCA [Mat - Exclusion NG 2 - Mod of JL - D9] (Eterna round: R96, puzzle: Exclusion NG 2) | 8.83 | 12.2 | 18.4 |  |  | 
10 | CAGCUGAAAGUCAGGAUAUCUAGAGCUUCGGCUCUAGAGAAGGGACAUGAGGAUCACCCAUGUCACUCCAGCUG [BmEx4/3-A1] (Eterna round: R97, puzzle: Brourd's mod of Exclusion 4) | 18.9 |  | 18.2 |  |  | 
11 | UCCAACCCUGUGAGGAUAUCGUCCAUUUUUUGUUCCGAGAAGGCACAUGAGGAUCACCCAUGUUUUUUAUUUUU [JR_BMOE4_Sub078] (puzzle: Brourd's mod of Exclusion 4) |  |  |  |  | 34.9 | 
12 | GGCCCUAGGGUCAGACGCACAAGCUUUUUGCUCGUUUUAACAUGAGGAUCACCCAUGUCUAGUGGAUCUGAUCGGGU [Mausinonra] (puzzle: Sensor v3, turn-off variant 2) |  |  |  | 20.6 | 111 | 18.5
13 | AGACAAACUGCAGGAUAUUGGCUGACUGCAGGUCAAGAAGGGCAGGACAUGAGGAUCACCCAUGUUCAGUAAACAGGGAGUCCU [Eternabot solution 14] (Eterna round: R96, puzzle: Exclusion NG 1) | 309 | 43.7 | 46.6 |  |  | 
14 | ACAAGCUUUUUGCAUGUUAGGUUUGUUGCUUCGUAUGUAACAUGAGGAUCACCCAUGUAUUACUGAUGUCGUCGUUU [JR_SV3TOV2_Sub089] (puzzle: Sensor v3, turn-off variant 2) |  |  |  | 18.4 | 17.2 | 18.2
15 | UACAUGAGGAUCACCCAUGUUUUGUCGUGUAUGGUAUUUAUCUAGGAUAUCACUUUAUUUAUUUAUGAGAAGGAGAAUAUUAAU [JMF's solution 8] (Eterna round: R96, puzzle: Exclusion NG 3) | 34.2 | 27.1 | 37.9 |  |  | 
